# Measurements reported in the supplement of paper PMC7125110.
# ± gives the standard error. Variants at the floor of the assay were thinned out.
# B1: glmS ribozyme (parent)
# chain: AUAAAAGCGCCAGAACUACAGAAAUGUAGUUGACGAGGAGGAGGUUUAUCGAAUUUUCGGCGGAUGCCUCCAAA
# Legend:
# Settings in all cases: with glucosamine-6-phosphate
# glucosamine-6-phosphate [1] = variants of: B1; assay: self-cleavage kobs at 160 uM GlcN6P; higher = faster cleavage; RNA array
# Summary of the method: (§1)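 Glucosamine-6-phosphate in HEPES/KCl/Mg(OAc)2 buffer, at 40 μM to 10 mM, was flowed over barcoded ribozyme variants transcribed in situ by E. coli RNA polymerase on sequenced MiSeq chips. Tracking was through a hybridised Cy3 probe at 37 °C. kobs, kcat and KM came from exponential decay fits and weighted Michaelis–Menten fits of normalised per-tile medians.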
# glucosamine-6-phosphate [2] = variants of: B1; assay: self-cleavage kobs at 640 uM GlcN6P; higher = faster cleavage; RNA array
# Summary of the method: as §1
# glucosamine-6-phosphate [3] = variants of: B1; assay: self-cleavage kobs at 2500 uM GlcN6P; higher = faster cleavage; RNA array
# Summary of the method: as §1
# glucosamine-6-phosphate [4] = variants of: B1; assay: self-cleavage kobs at 10000 uM GlcN6P; higher = faster cleavage; RNA array
# Summary of the method: as §1
Variant,self-cleavage kobs at 160 uM GlcN6P (glucosamine-6-phosphate [1]) [s⁻¹],self-cleavage kobs at 640 uM GlcN6P (glucosamine-6-phosphate [2]) [s⁻¹],self-cleavage kobs at 2500 uM GlcN6P (glucosamine-6-phosphate [3]) [s⁻¹],self-cleavage kobs at 10000 uM GlcN6P (glucosamine-6-phosphate [4]) [s⁻¹]
A14C A53U C67G,3.21e-05 ± 1.4e-05,0.000135 ± 2.7e-05,0.000238 ± 4.6e-05,–
U45G C58G G59A,< 1e-05,–,< 1e-05,–
G9U A12C C67U,< 1e-05,< 1e-05,< 1e-05,< 1e-05
A15G A53G U65C,6.49e-05 ± 1.6e-05,0.000264 ± 6.9e-05,0.000485 ± 0.00011,–
C10U U30C G43U G51U U55C U69C,< 1e-05,< 1e-05,< 1e-05,< 1e-05
C11U A14C A39G U69A,< 1e-05,–,–,–
G32C U46A C50A A52U,< 1e-05,< 1e-05,< 1e-05,–
U45A U54C,0.00513 ± 0.001,0.0141 ± 0.0026,–,–
C50G U65C,4.48e-05 ± 1.6e-05,0.000255 ± 0.0001,4.37e-05 ± 2.1e-05,–
C8A A15U A36C A52G,< 1e-05,–,–,–
G7C G32C G43U G60U,< 1e-05,–,< 1e-05,< 1e-05
G7U C16G U30G G59A U69G,< 1e-05,–,–,–
U54C U55A,0.00144 ± 0.00036,0.00609 ± 0.0028,0.00974 ± 0.0036,–
C10A A14C G37C G44U C61U,< 1e-05,–,–,–
C8U G32C G43C C70G,< 1e-05,–,–,–
C50G A52G C67U,0.000143 ± 5.1e-05,0.000875 ± 0.00027,7.71e-05 ± 2.8e-05,–
G7A C8U G13U A15C A39C U55G U57A,–,< 1e-05,–,–
A12U G32C U47G C70A,–,0.0007 ± 0.00018,–,–
U30A A64U,–,< 1e-05,–,–
G38A A42C A64G,–,< 1e-05,< 1e-05,–
A14G U49C,–,< 1e-05,–,–

Variant,self-cleavage kobs at 160 uM GlcN6P (glucosamine-6-phosphate [1]) [s⁻¹],self-cleavage kobs at 640 uM GlcN6P (glucosamine-6-phosphate [2]) [s⁻¹],self-cleavage kobs at 2500 uM GlcN6P (glucosamine-6-phosphate [3]) [s⁻¹],self-cleavage kobs at 10000 uM GlcN6P (glucosamine-6-phosphate [4]) [s⁻¹]
A14U C34A C70G,–,< 1e-05,< 1e-05,–
C10U A36G C58U,–,< 1e-05,–,–
G35U A39G G59U,–,< 1e-05,–,–
A6G U56C C61G,–,< 1e-05,< 1e-05,–
G44U G62A C70U,–,< 1e-05,–,–
A15G U31G A39U G60U,–,< 1e-05,< 1e-05,–
C8G G13C A52U A53U C71U,–,< 1e-05,–,< 1e-05
G9A G29U G41A U45A U47G C50U C70U,–,< 1e-05,–,–
G9A C16U U30G G38U,–,< 1e-05,< 1e-05,–
C11A A15G G32C A33U,–,< 1e-05,–,–
A48G A53C C58U G59U,–,< 1e-05,–,–
G38C C50G C67G,–,6.94e-05 ± 1.3e-05,0.000141 ± 4.2e-05,–
G40A G44U,–,< 1e-05,–,–
C16A U30G G35A C50A,–,< 1e-05,–,< 1e-05
A14U G40A A53C C71A,–,5.44e-05 ± 1.1e-05,0.000153 ± 2.6e-05,–
C16U G51U A64G C68A C71A,–,< 1e-05,< 1e-05,–
G29C A33G C68G,–,6.58e-05 ± 3e-05,–,–
A39G U45G C71U,–,0.00169 ± 0.0004,0.0041 ± 0.0017,–
U30A G44C U45G A48C U57A,–,< 1e-05,–,–
G9U U54C C68U,–,< 1e-05,–,–
C50G G63C C67U,–,0.000103 ± 4.4e-05,–,–

Variant,self-cleavage kobs at 160 uM GlcN6P (glucosamine-6-phosphate [1]) [s⁻¹],self-cleavage kobs at 640 uM GlcN6P (glucosamine-6-phosphate [2]) [s⁻¹],self-cleavage kobs at 2500 uM GlcN6P (glucosamine-6-phosphate [3]) [s⁻¹],self-cleavage kobs at 10000 uM GlcN6P (glucosamine-6-phosphate [4]) [s⁻¹]
G29C G35A G41C G63U C68G,–,< 1e-05,–,–
A6G A48U C61U,–,< 1e-05,< 1e-05,–
C10U G29A C34G C50A G63A G66C,–,< 1e-05,–,–
A15G U30A A39U,–,0.00404 ± 0.0016,0.00871 ± 0.0024,0.0247 ± 0.0076
A12C G60C C67U,–,< 1e-05,–,–
C34U G41C A52U G60C U69G,–,< 1e-05,–,< 1e-05
G29U A36G A53U G62A,–,< 1e-05,< 1e-05,–
C8G G60A C61G,–,< 1e-05,< 1e-05,–
A14C C16G G29U,–,0.000294 ± 5.1e-05,0.000837 ± 0.00017,–
C11A G13C U57G,–,< 1e-05,–,–
C11G A53C G59U U69A,–,< 1e-05,–,–
A33U G38U,–,< 1e-05,< 1e-05,< 1e-05
C16U C67G C70U,–,5.74e-05 ± 2e-05,7.27e-05 ± 2e-05,–
C11G A15C U30G A52U,–,< 1e-05,–,–
A15U U30A G32C U56C U57C C61G,–,< 1e-05,< 1e-05,–
C10U C11G G29U U30G G37C,–,< 1e-05,–,–
A6U U55G G59C U69C,–,0.000135 ± 5.3e-05,5.57e-05 ± 2.7e-05,–
G38U C50G G62U,–,0.000714 ± 0.00023,6.98e-05 ± 2e-05,–
A15U C16A U47A C61G C68G,–,8.84e-05 ± 3.3e-05,–,–
G9A C16U C58U,–,< 1e-05,–,–
A14U C34U A52G,–,< 1e-05,< 1e-05,< 1e-05
